± gives the uncertainty stated by the source.
Assay: amyloid nucleation score (Sup35N fusion, yeast selection) (log enrichment); library NNK3; higher = more nucleation; inactive = no reads after selection
In short: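 The nucleation score is the log enrichment of output over input reads, calculated with DiMSum and centred on the mode score of non-aggregating sequences. Sequences with under 100 input reads were excluded. Reads came from Illumina sequencing of plasmid inserts from psi-negative yeast expressing Sup35N fused to peptides of 20 random codons, induced 24 hours with 100 μM copper sulfate and grown 7 days at 30°C without adenine and uracil.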

Substance | amyloid nucleation score
DLQFGVGVTASPAAYCRYLS | inactive
DLQYLMLHVHNFYICDRYQP | inactive
DLVRAMRCHSVGDVGYASSS | inactive
DMDDHPDYHRNTND | inactive
DMFNLNLFGLLNCLGVMEET | 1.31 ± 0.072
DMGTTCPSCSKRLAGQGKAA | inactive
DMMYVIRIFFLATEYSSLHP | inactive
DMSPRMTLSIKSA | inactive
DNDVHKELFSPAASLSSTWS | inactive
DNHVVKVQL | inactive
DPGHGS | inactive
DPYFVG | inactive
DQAYWKQCSMSIWYGFRRLV | inactive
DQMTHFYYPRNRPRFAISLA | inactive
DRCWMCLEAALQVAACVGSG | inactive
DRFFTSFSVCSPNDDKGLL | inactive
DRGVLFRHIILGSPHIMNRV | inactive
DRISGFVIKYNFNLSFSEMW | 0.52 ± 0.17
DRKLLYY | inactive
DRPSWNMRSLNFSGQSVR | -0.59 ± 1.4
DRRNNVRFVVLFSRRYCGQA | inactive
DRSDNRSGYFMINVVYNDGE | 0.724 ± 0.18
DRVCSSRML | inactive

Substance | amyloid nucleation score
DRVDIRATADELGLR | inactive
DSCAIES | inactive
DSCTDEENM | inactive
DSFVLYALCNYWCSFCIKGA | 1.8 ± 0.09
DSIRLLLALPH | inactive
DSISCCSPNITAYEFYGLTG | 2.06 ± 0.066
DSKSSYK | inactive
DSMLVISVRVRTCMLGNVVA | inactive
DSSKWHAMYMLTKMKMTGWL | inactive
DSSPVPKGYNRVRPLVNLAV | inactive
DSVNRCFARGILSCLVCL | inactive
DSVRASSLLWMFWCIVEFHG | inactive
DSWHFFCFIMVCIVKYWFFA | inactive
DSYSIILCFHKNKLLVLLSP | 0.156 ± 0.42
DTNGMMRAMLRYPIIRFLYA | -0.402 ± 0.63
DTRVGP | inactive
DTSGSCSILTRSRNMSFWRR | inactive
DTSTSMFRRVMEATVSTSLL | inactive
DTSVYFQSSTCCAKKSGHKP | inactive
DTVMRSVLEAIVYINKIFVR | inactive
DTYIGNINESMH | inactive
DVCGFYIHFRFTNKYQGVAS | inactive
DVCLGWAQTAFRCLMRG | inactive

Substance | amyloid nucleation score
DVFSNMSWYYCNVIWNAYDM | 0.196 ± 0.52
DVLLVIKVDYQVGLARVSRL | inactive
DVPVKNSYDFMYDCWAMPCS | inactive
DVRFVRDAGAVFLIILSERH | inactive
DVRRWNNYDLRGWVVA | inactive
DVTTDDSSFRYMLKLLRGIT | inactive
DVYKNPLSEQPSRYCTE | inactive
DWLMPIFQVNIEMLWLSWLW | inactive
DWVMADRMSPVKIMYATSSG | inactive
DYESCEIRVLETEWIGVGT | inactive
DYGSFMYSLTSCMVNYWYMA | inactive
DYIRHSFHCVLILSDKSHFS | inactive
DYSHLCSNIQGIAFVVVIQN | inactive
DYTGT | -0.191 ± 0.74
DYYGLK | inactive
DYYSCFISYRLIRYWICGEA | inactive
EAYDGKSSICSRCS | inactive
ECCDFSGCRCTSS | -0.498 ± 0.91
ECYCWFVNWLSFCKNGYSGM | inactive
EDAWMIVRISGC | inactive
EDFLNSWKVSYWKNHTMVVW | inactive
EDHCSLFKLSAFTAYTGLAL | inactive
EDSRLLGC | 0.724 ± 0.14

Substance | amyloid nucleation score
EEMLRHCHKIRERWGSKSFE | inactive
EERRDLAPTDLTWKDFRALQ | inactive
EFFAPSVTDQMLTFRLLYKT | 0.821 ± 0.26
EFMAGNDSRIQCSRIRGCYG | inactive
EFSVLWMLQMDHSTLKFANS | inactive
EFYFATRMMF | 1.09 ± 0.092
EGFPV | inactive
EGMEWVVEDNFRKMCYTARF | inactive
EGNMLASRSSGEPS | inactive
EGPVSGPC | inactive
EGRNFRCLFG | inactive
EGRSNNLCSSSSLWQVHAAL | inactive
EGSHVPIILGYREFCVFILT | inactive
EGSNI | 1.05 ± 0.17
EGVFHACDSTGT | -0.737 ± 1.5
EICGCCWKPVMWTGRCSCVY | inactive
EICKSLKLCNIWNCRIMLRS | inactive
EIGSHIGDVQHRVFYNVTLV | inactive
EIQSVMLYIASTFSILYLRH | inactive
EKFRWQSISIEVECSMAVQH | inactive
EKLIVNDYCRRSGPDMVAVD | inactive
EKMAADQSS | inactive
EKYRNGGY | inactive

Substance | amyloid nucleation score
ELFILHSGGGWCSGI | 0.926 ± 0.16
ELFMPDSIRT | inactive
ELGFCNWGGLSWLNQDSSGV | -0.085 ± 1
ELLVNN | inactive
EMSWRSVKSSHYKQMEFSGR | inactive
ENCAWSRIIRRFNECNTLV | inactive
ENERM | inactive
EPGSANRSSESNCRVGGTDD | inactive
EPTVC | inactive
EQKGKQFEVSVDSYSTWEVG | inactive
EQRLSSGRWVS | inactive
ERFYTLVI | inactive
ERKCLLCNYHMY | inactive
ERNAGLITAFYFYSPFGTMM | inactive
ERRRVRP | inactive
ERSVPSGE | inactive
ESAKFYLYSAR | inactive
ESFHMFFFQLLSYCFSNCGW | inactive
ESFPFVSASDCSCSNR | inactive
ESFWVML | inactive
ESIRCFSTYKNGSIRSFRAL | inactive
ESIYVNPGDSL | inactive
ESLAWS | inactive

Substance | amyloid nucleation score
ESLIRVICMVDERSEQTWSG | inactive
ESMRGSYSYYSSGCLHD | inactive
ESWVFRTRDMPGEFTSSVCM | inactive
ETFFIYDVALQ | inactive
ETGDI | 1.64 ± 0.087
ETVDSFVM | inactive
EVFHIRMSVF | -0.577 ± 2.4
EVIVVKGHGVHIVFCVGSAS | inactive
EVKSDVMKLFNCVFSCPLTF | 2.38 ± 0.073
EVLEFVSNGGMVTEMGP | inactive
EVNWSIIRGWVEISYTVPEL | inactive
EVRPCNMLGLRNIGRGYREN | inactive
EVVKLVR | inactive
EVYEMNSIRMRSSELSME | inactive
EWFCLCWT | inactive
EWGTWSTY | inactive
EWIGVVNVRNDPPSGC | inactive
EYAKMSLCPSYRFCVLFASW | inactive
EYELESESKCPLDFAFIKKG | inactive
EYKAPREFPSTNCIHFNLMT | inactive
EYRLVKFHSPLFQRIKSIVA | inactive
EYTLPRPCRLLIFSDQYSNA | inactive
FAFKLWRKVQYVFHLFYPAR | 0.342 ± 0.69

Substance | amyloid nucleation score
FALTIGSFSRMNHTVPNPFE | inactive
FCAVALFFNTSVSFIDRSLP | 1.66 ± 0.083
FCFLLKALTYHLS | -0.067 ± 0.75
FCKLYINQYIYHDSVVVIVG | 2.41 ± 0.06
FCLNYDGGWWCRMSCVYNQG | inactive
FCLRLTYVRS | 0.757 ± 0.22
FCLVLGVWNLVPPGVKSMMQ | 0.889 ± 0.14
FCRLGIRSVFIYFKVTSLIV | 0.049 ± 0.47
FCVEIMSLSVRGCWGYSFGT | inactive
FCWVLCTP | inactive
FCYVSCLS | inactive
FDDPHGTVTCED | -0.176 ± 0.98
FDGKMVYFSAEFSFDKFLDR | 1.74 ± 0.11
FDLPCSYRCSMTYCYGVNGI | 1.02 ± 0.18
FDLVFLLYMGMTQ | inactive
FDSFLWLTMNWIELIGNILV | inactive
FDWIE | inactive
FDYLLYQLCYVYRTYKTVRR | inactive
FDYWCKVMSHEYYVEEPNIY | inactive
FEKGSFLDRTESSHIGGLMH | inactive
FELVIYQIVRIIVRSLADIS | inactive
FERISRSFAYIDIRHIICMF | 1.56 ± 0.11
FEWLWIFWYNLFWLWGNYSI | inactive
